Tests used:
[1] = target: TSHR Arg255 to Asp (human) (UniProt P16473); assay: cell-based or functional assay
[2] = target: human thyrotropin receptor (TSHR), wild type, full length (human) (UniProt P16473); assay: cell-based or functional assay

hMAb TSHR1 IgG (antibody)
Cyclic AMP produced (fmol/cell well), hMAb TSHR1 IgG 1 ng/mL (fmol/cell well) [1]: 940
Cyclic AMP produced (fmol/cell well), hMAb TSHR1 IgG 10 ng/mL (fmol/cell well) [1]: 3160
Cyclic AMP produced (fmol/cell well), hMAb TSHR1 IgG 100 ng/mL (fmol/cell well) [1]: 5700
Cyclic AMP produced (fmol/cell well), hMAb TSHR1 IgG 1 µg/mL (fmol/cell well) [1]: 5030
Mutated/Wild type (%), hMAb TSHR1 IgG 1 ng/mL [1]: 19%
Mutated/Wild type (%), hMAb TSHR1 IgG 10 ng/mL [1]: 19%
Mutated/Wild type (%), hMAb TSHR1 IgG 100 ng/mL [1]: 37%
Cyclic AMP produced (fmol/cell well), hMAb TSHR1 IgG 1 ng/mL (fmol/cell well) [2]: 4860
Cyclic AMP produced (fmol/cell well), hMAb TSHR1 IgG 10 ng/mL (fmol/cell well) [2]: 16200
Cyclic AMP produced (fmol/cell well), hMAb TSHR1 IgG 100 ng/mL (fmol/cell well) [2]: 15400
Cyclic AMP produced (fmol/cell well), hMAb TSHR1 IgG 1 µg/mL (fmol/cell well) [2]: 16300
